From patent publication US20190359693A1 (Janssen / Centocor, published 2019)
Like-named read-outs stand apart in the source and are kept apart here.

How the values were obtained:
[1] = molecular target: HA of H7N9 A/Anhui/1/13 (influenza A virus); assay: cell-based or functional assay
[2] = molecular target: HA of H5N2 A/Eurasian Wigeon/HK/MPF333/07 (influenza A virus); assay: cell-based or functional assay
[3] = molecular target: HA of H3N2 A/Panama/2007/99 (influenza A virus); assay: cell-based or functional assay
[4] = molecular target: HA of H7N7 A/Northern Shoveler/MPF518/08 (influenza A virus); assay: cell-based or functional assay
[5] = molecular target: HA of H1N1 A/HK/54/98 (influenza A virus); assay: cell-based or functional assay
[6] = molecular target: HA of H14N5 A/Mallard/Astrakhan/263/1982 (influenza A virus); assay: cell-based or functional assay
[7] = molecular target: HA of H3N2 A/Aichi/2/68 (influenza A virus, UniProt P03437 17-566); assay: cell-based or functional assay
[8] = molecular target: HA of H10N9 A/Northern Shoveler/MPE2531/08 (influenza A virus); assay: cell-based or functional assay
[9] = molecular target: HA of H11N9 A/Northern Pintail/MPC2085/07 (influenza A virus); assay: cell-based or functional assay
[10] = molecular target: HA of H2N2 A/AnnArbor/23/57 (influenza A virus); assay: cell-based or functional assay
[11] = molecular target: HA of H9N2 A/HK/466419/09 (influenza A virus); assay: cell-based or functional assay
[12] = molecular target: T1, HA of H3N2 A/HK/1/68 (influenza A virus, UniProt Q91MA7 17-530); assay: cell-based or functional assay
[13] = molecular target: HA of H9N2 A/Ck/HK/SSP176/09 (influenza A virus); assay: cell-based or functional assay
[14] = molecular target: HA of H6N1 A/Taiwan/2/2013 (influenza A virus); assay: cell-based or functional assay
[15] = molecular target: HA of H2N2 A/Env/HK/MPU3156/05 (influenza A virus); assay: cell-based or functional assay
[16] = molecular target: HA of H5N1 A/PR8 H5N1 HK97 (influenza A virus); assay: cell-based or functional assay
[17] = molecular target: HA of H3N2 A/Perth/16/09 (influenza A virus); assay: cell-based or functional assay
[18] = molecular target: HA of H1N1 A/Mississippi/03/01 274H (influenza A virus); assay: cell-based or functional assay
[19] = molecular target: HA of H6N8 A/Eurasian Wigeon/MPD411/07 (influenza A virus); assay: cell-based or functional assay
[20] = molecular target: HA of H7N9 A/Shanghai/2/13 (influenza A virus); assay: cell-based or functional assay
[21] = molecular target: T2, HA of H7N7 A/Netherlands/219/2003 (influenza A virus, UniProt P36346 19-563); assay: cell-based or functional assay
[22] = molecular target: HA of H1N1 A/Puerto Rico/8/34-MA (influenza A virus); assay: cell-based or functional assay
[23] = molecular target: HA of H10N3 A/Common Teal/MPH11/08 (influenza A virus); assay: cell-based or functional assay
[24] = molecular target: HA of H5N2 A/Eurasian Wigeon/MPF461/07 (influenza A virus); assay: cell-based or functional assay
[25] = molecular target: HA of H2N2 A/Guiyang/1/57 (influenza A virus); assay: cell-based or functional assay
[26] = molecular target: HA of H7N9 A/Shanghai/1/13 (influenza A virus); assay: cell-based or functional assay
[27] = molecular target: HA of H3N2 A/Fukui/45/04 (influenza A virus); assay: cell-based or functional assay
[28] = molecular target: HA of H8N2 A/Env/MPJ1258/09 (influenza A virus); assay: cell-based or functional assay
[29] = molecular target: HA of H8N4 A/Eurasian Wigeon/MPH571/08 (influenza A virus); assay: cell-based or functional assay
[30] = molecular target: HA of H5N1 A/Indonesia/5/05 (influenza A virus); assay: cell-based or functional assay
[31] = molecular target: HA of H4N1 A/Northern Pintail/MPB1368/06 (influenza A virus); assay: cell-based or functional assay
[32] = molecular target: HA of H1N1 A/WSN/33 (influenza A virus, UniProt P03454 18-565); assay: cell-based or functional assay
[33] = molecular target: HA of H3N2 A/HK/1/68-MA (influenza A virus); assay: cell-based or functional assay
[34] = molecular target: HA of H6N1 A/Eurasian Wigeon/MPG1884/09 (influenza A virus); assay: cell-based or functional assay
[35] = molecular target: HA of H7N7 A/PR8 H7N7-NY (influenza A virus); assay: cell-based or functional assay
[36] = molecular target: HA of H3N2 A/Johannesburg/33/94 (influenza A virus); assay: cell-based or functional assay
[37] = molecular target: HA of H1N2 A/Env/HK/MPU3156/05 (influenza A virus); assay: cell-based or functional assay
[38] = molecular target: HA of H10N7 A/Chick/Germany/N/49 (influenza A virus); assay: cell-based or functional assay
[39] = molecular target: HA of H3N2 A/HK/1174/99 (influenza A virus); assay: cell-based or functional assay
[40] = molecular target: HA of H3N2 A/Hiroshima/52/05 (influenza A virus); assay: cell-based or functional assay
[41] = molecular target: HA of H1N1 A/Solomon Islands/3/2006 (IVR 145) (influenza A virus); assay: cell-based or functional assay
[42] = molecular target: HA of H12N5 A/Env/MPK659/09 (influenza A virus); assay: cell-based or functional assay
[43] = molecular target: HA of H9N2 A/Great Cormorant/MP2934/04 (influenza A virus); assay: cell-based or functional assay
[44] = molecular target: HA of H4N6 A/Great Cormorant/MPB1683/06 (influenza A virus); assay: cell-based or functional assay
[45] = molecular target: HA of H7N7 A/Common Teal/MPF139/07 (influenza A virus); assay: cell-based or functional assay
[46] = molecular target: HA of H3N2 A/Victoria/210/09 (influenza A virus); assay: cell-based or functional assay
[47] = molecular target: HA of H4 A/WF/HK/MPA892/06 (influenza A virus); assay: cell-based or functional assay
[48] = molecular target: HA of H10N8 A/Jiangxi/346/2013 (influenza A virus); assay: cell-based or functional assay
[49] = molecular target: HA of H1N1 A/Christchurch/16/10 (influenza A virus); assay: cell-based or functional assay
[50] = molecular target: T1, HA of H3N2 A/HK/1/68; assay: BLI steady state
[51] = molecular target: T2, HA of H7N7 A/Netherlands/219/2003; assay: AlphaLISA competition vs CR9114
[52] = molecular target: HA of H1N1 A/Brisbane/59/07 (influenza A virus); assay: cell-based or functional assay
[53] = molecular target: T1, HA of H3N2 A/HK/1/68; assay: BLI (Octet)
[54] = molecular target: HA of H3N2 A/Panama/2007/99 (influenza A virus); assay: cell-based or functional assay; remark: listed apart in the source
[55] = molecular target: HA of H3N2 A/HK/1/68-MA (influenza A virus); assay: cell-based or functional assay; remark: listed apart in the source
[56] = molecular target: HA of H7N7 A/PR8 H7N7-NY (influenza A virus); assay: cell-based or functional assay; remark: listed apart in the source
[57] = molecular target: HA of H10N7 A/Chick/Germany/N/49 (influenza A virus); assay: cell-based or functional assay; remark: listed apart in the source
[58] = molecular target: HA of H4 A/WF/HK/MPA892/06 (influenza A virus); assay: cell-based or functional assay; remark: listed apart in the source
[59] = molecular target: HA of H5N1 A/Vietnam/1194/04 (influenza A virus); assay: cell-based or functional assay
[60] = molecular target: HA of H3N2 A/Brisbane/10/2007 (influenza A virus); assay: cell-based or functional assay

B1: SD1036 (VHH)
VHH: EVQLVESGGGLVQAGGSLKLSCAASGRTYAMGWFRQAPGKEREFVAHINALGTRTYYSDSVKGRFTISRDNAKNTEYLEMNNLKPEDTAVYYCTAQGQWRAAPVAVAAEYEFWGQGTQVTVSS
notes: llama sdAb
- VNA titer [1]: 65.9 nM
- VNA titer [2]: > 1000 nM
- VNA titer [3]: > 1000 nM
- VNA titer [4]: 44.7 nM
- VNA titer [5]: > 1000 nM
- VNA titer [6]: 16.2 nM
- VNA titer [7]: 6.5 nM
- VNA titer [8]: 19.9 nM
- VNA titer [9]: > 1000 nM
- VNA titer [10]: > 1000 nM
- VNA titer [11]: > 1000 nM
- VNA titer [12]: 115 nM
- VNA titer [13]: > 1000 nM
- VNA titer [14]: > 1000 nM
- VNA titer [15]: > 1000 nM
- VNA titer [16]: > 1000 nM
- VNA titer [17]: 76.4 nM
- VNA titer [18]: > 1000 nM
- VNA titer [19]: > 1000 nM
- VNA titer [20]: 33 nM
- VNA titer [21]: 28.9 nM
- VNA titer [22]: > 1000 nM
- VNA titer [23]: 28.9 nM
- VNA titer [24]: > 1000 nM
- VNA titer [25]: > 1000 nM
- VNA titer [26]: 101 nM
- VNA titer [27]: > 1000 nM
- VNA titer [28]: > 1000 nM
- VNA titer [29]: > 1000 nM
- VNA titer [30]: > 1000 nM
- VNA titer [31]: 80.7 nM
- VNA titer [32]: > 1000 nM
- VNA titer [33]: 73.2 nM
- VNA titer [34]: > 1000 nM
- VNA titer [35]: 8.8 nM
- VNA titer [36]: 601 nM
- VNA titer [37]: > 1000 nM
- VNA titer [38]: 22.2 nM
- VNA titer [39]: > 1000 nM
- VNA titer [40]: > 1000 nM
- VNA titer [41]: > 1000 nM
- VNA titer [42]: > 1000 nM
- VNA titer [43]: 677 nM
- VNA titer [44]: 44.5 nM
- VNA titer [45]: 18.3 nM
- VNA titer [46]: 540 nM
- VNA titer [47]: 40.4 nM
- VNA titer [48]: 83.9 nM
- VNA titer [49]: > 1000 nM
- Kd [50]: 2 nM
- pIC50 [51]: 9.3

B2: SD1047 (VHH)
VHH: EVQLVESGGGLVQAGGSLRISCAASGRTYAMAWFRQAPGKEREFVAHINALGTRTYYSDSVKDRFTISRDNAKNTEYLQMNSLKPEDTAVYYCVAGGQWRAAPVAAAESYDFWGQGTQVTVSS
- VNA titer [52]: > 1000 nM
- VNA titer [22]: > 1000 nM
- VNA titer [33]: > 1000 nM

B3: SD1016 (VHH)
VHH: EVQLVESGGGLVQAGGSLRLSCVASGMFFGIAAMGWYRQAPGKQRELVANITSDFSTNYADSVKDRFTISRDNAENTVYLQMNSLKPEDTAVYYCAADSLGTGWRHYYYWGQGTQVTVSS
notes: llama sdAb
- binding result [53]: no binding (tested: HA 20 µg/mL)
- VNA titer [54]: > 1000 nM
- VNA titer [55]: > 1000 nM
- VNA titer [56]: > 1000 nM
- VNA titer [57]: > 1000 nM
- VNA titer [58]: > 1000 nM

B4: SD1035 (VHH)
VHH: EVQLVESGGGLVQAGGTLRLSCAASGSAVSISRMAWYRQAPGKQRELVADIFSGGGTNYADSVKGRFTISRDNAKNTVDLQMNSLKPEDTAVYYCSARSAVAAIHWDQYDYWGQGTQVTVSS
notes: llama sdAb
- binding result [53]: no binding (tested: HA 20 µg/mL)
- VNA titer [59]: > 1000 nM
- VNA titer [60]: > 1000 nM
